Source: patent publication US20240174758A1 (AstraZeneca / MedImmune, published 2024)
Where a chain is given by its changes, count along the chain named. Each block holds one binder with its values, some of them ahead of it.

What was measured:
[1] = target: T1, human CCR9B (human, UniProt P51686 13-369); test: binding to HEK cells expressing human CCR9B (huCCR9B), FL1 counts against Log M, methods of Example 4
T1 construct: Overexpressed on HEK cells; also called Hu B HEK; hCCR9 isoform B
T1 sequence: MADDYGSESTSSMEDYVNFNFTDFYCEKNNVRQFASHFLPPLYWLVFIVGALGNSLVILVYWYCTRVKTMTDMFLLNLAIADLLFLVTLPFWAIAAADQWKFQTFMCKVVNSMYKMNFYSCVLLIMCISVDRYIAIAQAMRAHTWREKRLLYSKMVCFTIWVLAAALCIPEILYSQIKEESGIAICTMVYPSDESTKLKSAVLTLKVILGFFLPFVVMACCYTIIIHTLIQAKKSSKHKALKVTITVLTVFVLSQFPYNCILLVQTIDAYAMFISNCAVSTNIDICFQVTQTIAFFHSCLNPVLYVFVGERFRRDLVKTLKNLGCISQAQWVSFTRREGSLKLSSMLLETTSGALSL

[2] = target: CCR9 (species and isoform not stated) (UniProt P51686)
[3] = target: CCR9 (species and isoform not stated) (UniProt P51686); test: LigandTracer on CCR9-expressing CHO K1 cells, DyLight 650 labelled IgG, bivalent (1:2) fit, about 22 C
[4] = target: human CCR9 (isoform not given) (human) (UniProt P51686); test: cell-based or functional assay
[5] = target: T2, mouse CCR9 (mouse, UniProt Q9WUT7 1-369); test: cell binding by the methods of Example 4
T2 construct: whole, on cells; Overexpressed on HEK cells; also called mCCR9; Mouse HEK
T2 sequence (looked up): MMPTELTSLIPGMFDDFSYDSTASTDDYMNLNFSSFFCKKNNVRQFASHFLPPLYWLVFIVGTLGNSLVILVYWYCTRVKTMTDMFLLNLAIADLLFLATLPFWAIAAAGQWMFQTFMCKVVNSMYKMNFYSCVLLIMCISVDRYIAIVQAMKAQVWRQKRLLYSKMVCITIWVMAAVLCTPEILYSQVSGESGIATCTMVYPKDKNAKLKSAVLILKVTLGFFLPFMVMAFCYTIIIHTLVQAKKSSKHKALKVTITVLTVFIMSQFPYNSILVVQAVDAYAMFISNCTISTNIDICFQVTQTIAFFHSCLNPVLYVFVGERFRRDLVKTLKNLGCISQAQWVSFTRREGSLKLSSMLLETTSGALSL

[6] = target: T3, rat CCR9 (rat, UniProt Q8CH33 1-369); test: cell binding by the methods of Example 4
T3 construct: Overexpressed on HEK cells; also called Rat HEK
T3 sequence: T2 sequence (looked up) with M2T, L6F, F17Y, I60V, L64V, V189I, T197I, S272C, A283T

[7] = target: human CCR9 (isoform not given) (human), P51686
[8] = target: T4, cynomolgus CCR9 (cynomolgus, UniProt Q0H741 1-369); test: cell-based or functional assay
T4 sequence: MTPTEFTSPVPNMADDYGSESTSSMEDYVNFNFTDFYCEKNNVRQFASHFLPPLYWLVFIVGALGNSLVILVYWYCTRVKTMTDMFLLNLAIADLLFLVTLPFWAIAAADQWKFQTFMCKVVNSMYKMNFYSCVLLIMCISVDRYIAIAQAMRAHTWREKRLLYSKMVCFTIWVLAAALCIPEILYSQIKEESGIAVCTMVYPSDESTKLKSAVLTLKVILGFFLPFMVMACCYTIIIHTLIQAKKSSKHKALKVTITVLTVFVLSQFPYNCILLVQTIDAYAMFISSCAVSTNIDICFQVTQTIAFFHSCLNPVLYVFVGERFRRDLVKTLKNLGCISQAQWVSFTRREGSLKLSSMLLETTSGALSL

[9] = target: human CCR9 (isoform not given) (human), P51686; test: cell-based or functional assay
[10] = target: CCR9 (species and isoform not stated) (UniProt P51686); test: cell-based or functional assay
[11] = target: T5, human CCR9A (human, UniProt P51686 1-369); test: binding to cells expressing human CCR9A, FL1 counts against Log M, methods of Example 4
T5 construct: Overexpressed on HEK cells; also called Hu A HEK; hCCR9 isoform A
T5 sequence: T4 sequence with E5D, V10I, V197I, M228V, S288N

[12] = target: T1, human CCR9B; test: binding to cells expressing human CCR9B, FL1 counts against Log M, methods of Example 4

- binding result [1]: binds
- EC50 of a CPS dose-response curve (potency; luminescence counts per second as in the NK cell activation assay of Example 4); target cells not named on the sheet (M (axis Log M; no unit in the table)) [2]: 7.3e-09
- koff [3]: 4.3e-05 s⁻¹
- Potency, NK cell activation assay (NK-92 MI CD16a NFAT luciferase, in vitro ADCC bioassay) [4]: 0.8 nM
B1: Humanised AB1020243 (AB1020243-fgl) (antibody, V domains shown)
VH: QVQLVQSGAEVKKPGASVKVSCKASGYTFTSYWMHWVRQAPGQGLEWIGVIYPGNSDTRYNQKFKGRVTITRDTSASTAYMELSSLRSEDTAVYYCTRDYYSNYVYYYAMDYWGQGTTVTVSS
VL: DIVMTQTPLSLPVTPGEPASISCRSSQSLVHSNGNTYLHWYLQKPGQSPQLLIYKVSNRFSGVPDRFSGSGSGTDFTLKISRVEAEDVGVYYCSQSTHVPWTFGQGTKLEIK
notes: For LigandTracer it was labelled with DyLight 650 on an engineered cysteine in CH2; also called humanised AB1020243 afuc

- binding result [5]: no binding
- binding result [6]: no binding
- IC50 (read off the curve) [7]: 0.7 nM
B2: AB243LO0331 (antibody, V domains shown)
VH: B1 VH
VL: B1 VL with G34T
notes: CDR-optimised humanised antibody, a-fuc huIgG1 (afucosylated in all experiments); The constant regions are not expressly tied to it

- binding result [5]: no binding
- binding result [6]: no binding
- Kd [3]: 0.09 nM
- CCL25 induced CCR9 internalisation (FACS) [10]: 2 nM
- IC50 (read off the curve) [7]: 0.7 nM
- binding result [11]: binds
- binding result [12]: binds
B3: AB243LO0326 (antibody, V domains shown)
VH: B1 VH
VL: B1 VL with S32P, G34R
notes: CDR-optimised humanised antibody, a-fuc huIgG1 (afucosylated in all experiments); For LigandTracer it was labelled with DyLight 650 on an engineered cysteine in CH2; also called CDR-optimised AB1020243
- EC50, killing of cynomolgus CD4+CCR9+ PBMC [8]: 0.03 nM
- EC50, killing of PBMC [9]: 0.004 nM
- EC50, killing of human CD4+CCR9+ PBMC [9]: 0.004 to 0.005 nM
